B1: 213 (protein)
chain: LDNGLARTPTMGWLQWERFMCNLDCQEEPDSCISEKLFMEMAELMVSEGWKDAGYEYLCIDDCWMAPQRDSEGRLQADPQRFPHGIRQLANYVHSKGLKLGIYADVGNKTCAGFPGSFGYYDIDAQTFADWGVDLLKFDGCYCDSLENLADGYKHMSLALNRTGRSIVYSCEWPLYMWPFQKPNYTEIRQYCNHWRNFADIDDSWASIKSILDWTSFNQERIVDVAGPGGWNDPDMLVIGNFGLSWNQQVTQMALWAIMAAPLFMSNDLRHISPQAKALLQDKDVIAINQDPLGKQGYQLRQGDNFEVWERPLSGLAWAVAMINRQEIGGPRSYTIAVASLGKGVACNPACFITQLLPVKRKLGFYEWTSRLRSHINPTGTVLLQLENTMQMSKDLLL
modifications: Synthetic Polypeptide sequence of Variant No. 213 of mature Human GLA
B2: 214 (protein)
chain: LDNGLARTPTMGWLHWERFMCNLDCQEEPDSCISEKLFMEMAELMVSEGWKDAGYEYLCIDDCWMAPQRDSEGRLQADPQRFPHGIRQLANYVHSKGLKLGIYADVGNKTCAGFPGSFGYYDIDAQTFADWGVDLLKFDGCYCDSLENLADGYKHMSLALNRTGRSIVYSCEWPLYMWPFQKPNYTEIRQYCNHWRNFADIDDSWASIKSILDWTSFNQERIVDVAGPGGWNDPDMLVIGNFGLSWNQQVTQMALWAIMAAPLFMSNDLRHISPQAKALLQDKDVIAINQDPLGKQGYQLRQGDNFEVWERPLSGLAWAVAMINRQEIGGPRSYTIAVASLGDGVACNPACFITQLLPVKRKLGLYNWTSRLRSHINPTGTVLLQLENTMQMSKDLLL
modifications: Synthetic Polypeptide sequence of Variant No. 214 of mature Human GLA
B3: 215 (protein)
chain: LDNGLARTPTMGWLHWERFMCNLDCQEEPDSCISEKLFMEMAELMVSEGWKDAGYEYLCIDDCWMAPQRDSEGRLQADPQRFPHGIRQLANYVHSKGLKLGIYADVGNKTCAGFPGSFGYYDIDAQTFADWGVDLLKFDGCYCDSLENLADGYKHMSLALNRTGRSIVYSCEWPLYMWPFQKPNYTEIRQYCNHWRNFADIDDSWASIKSILDWTSFNQERIVDVAGPGGWNDPDMLVIGNFGLSWNQQVTQMALWAIMAAPLFMSNDLRHISPQAKALLQDKDVIAINQDPLGKQGYQLRQGDNFEVWERPLSGLAWAVAMINRQEIGGPRSYTIAVASLGGGVACNPACFITQLLPVKRKLGFYEWTSRLRSHINPTGTVLLQLENTMQMSKDLLL
modifications: Synthetic Polypeptide sequence of Variant No. 215 of mature Human GLA
B4: 216 (protein)
chain: LDNGLARTPTMGWLHWERFMCNLDCQEEPDSCISEKLFMEMAELMVSEGWKDAGYEYLCIDDCWMAPQRDSEGRLQADPQRFPHGIRQLANYVHSKGLKLGIYADVGNKTCAGFPGSFGYYDIDAQTFADWGVDLLKFDGCYCDSLENLADGYKHMSLALNRTGRSIVYSCEWPLYMWPFQKPNYTEIRQYCNHWRNFADIDDSWASIKSILDWTSFNQERIVDVAGPGGWNDPDMLVIGNFGLSWNQQVTQMALWAIMAAPLFMSNDLRHISPQAKALLQDKDVIAINQDPLGKQGYQLRQGDNFEVWERPLSGLAWAVAMINRQEIGGPRSYTIAVASLGGGVACNPACFITQLLPVKRKLGLYNWTSRLKSHINPTGTVLLQLENTMQMSKDLLL
modifications: Synthetic Polypeptide sequence of Variant No. 216 of mature Human GLA
B5: 218 (protein)
chain: LDNGLARTPTMGWLHWERFMCNLDCQEEPDSCISEKLFMEMAELMVSEGWKDAGYEYLCIDDCWMAPQRDSEGRLQADPQRFPHGIRQLANYVHSKGLKLGIYADVGNKTCAGFPGSFGYYDIDAQTFADWGVDLLKFDGCYCDSLENLADGYKHMSLALNRTGRSIVYSCEWPLYMWPFQKPNYTEIRQYCNHWRNFADIDDSWASIKSILDWTSFNQERIVDVAGPGGWNDPDMLVIGNFGLSWNQQVTQMALWAIMAAPLFMSNDLRHISPQAKALLQDKDVIAINQDPLGKQGYQLRQGDNFEVWERPLSGLAWAVAIINRQEIGGPRSYTIAVASLGKGVACNPACFITQLLPVKRKLGFYNWTSRLKSHINPTGTVLLQLENTMQMSLKDLL
modifications: Synthetic Polypeptide sequence of Variant No. 218
B6: 219 (protein)
chain: LDNGLARTPTMGWLHWERFMCNLDCQEEPDSCISEKLFMEMAELMVSEGWKDAGYEYLCIDDCWMAPQRDSEGRLQADPQRFPHGIRQLANYVHSKGLKLGIYADVGNKTCAGFPGSFGYYDIDAQTFADWGVDLLKFDGCYCDSLENLADGYKHMSLALNRTGRSIVYSCEWPLYMWPFQKPNYTEIRQYCNHWRNFADIDDSWASIKSILDWTSFNQERIVDVAGPGGWNDPDMLVIGNFGLSWNQQVTQMALWAIMAAPLFMSNDLRHISPQAKALLQDKDVIAINQDPLGKQGYQLRQGDNFEVWERPLSGLAWAVAIINRQEIGGPRSYTIAVASLGKGVACNPACFITQLLPVKRKLGFYEWTSRLKSHINPTGTVLLQLENTMQMSKDLLL
modifications: Synthetic Polypeptide sequence of Variant No. 219 of mature Human GLA
B7: 220 (protein)
chain: LDNGLARTPTMGWLHWERFMCNLDCQEEPDSCISEKLFMEMAELMVSEGWKDAGYEYLCIDDCWMAPQRDSEGRLQADPQRFPHGIRQLANYVHSKGLKLGIYADVGNKTCAGFPGSFGYYDIDAQTFADWGVDLLKFDGCYCDSLENLADGYKHMSLALNRTGRSIVYSCEWPLYMWPFQKPNYTEIRQYCNHWRNFADIDDSWASIKSILDWTSFNQERIVDVAGPGGWNDPDMLVIGNFGLSWNQQVTQMALWAIMAAPLFMSNDLRHISPQAKALLQDKDVIAINQDPLGKQGYQLRQGDNFEVWERPLSGLAWAVAVINRQEIGGPRSYTIAVASLGKGVACNPACFITQLLPVKRKLGFYEWTSRLKSHVNPTGTVLLQLENTMQMSKDLLL
modifications: Synthetic Polypeptide sequence of Variant No. 220 of mature Human GLA
B8: 221 (protein)
chain: LDNGLARTPTMGWLHWERFMCNLDCQEEPDSCISEKLFMEMAELMVSEGWKDAGYEYLCIDDCWMAPQRDSEGRLQADPQRFPHGIRQLANYVHSKGLKLGIYADVGNKTCAGFPGSFGYYDIDAQTFADWGVDLLKFDGCYCDSLENLADGYKHMSLALNRTGRSIVYSCEWPLYMWPFQKPNYTEIRQYCNHWRNFADIDDSWASIKSILDWTSFNQERIVDVAGPGGWNDPDMLVIGNFGLSWNQQVTQMALWAIMAAPLFMSNDLRHISPQAKALLQDKDVIAINQDPLGKQGYQLRQGDNFEVWERPLSGLAWAVAMINRQEIGGPRSYTIAVASLGKGVACNPACFITQLLPVKRKLGFYEWTSRLRSHINPTGTVLLQLENTIQMSKDLLL
modifications: Synthetic Polypeptide sequence of Variant No. 221 of mature Human GLA

Assays:
Format in all cases: biochemical
[1] = HTP-analysis of yeast culture supernatants, no challenge (MUGal hydrolysis); conditions: activity of the variant/activity of Rd2BB (SEQ ID NO: 10), yeast supernatant
Outline: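 Activity read as 4-methylumbelliferyl α-D-galactopyranoside hydrolysis: fluorescence (355/448 nm) after sodium carbonate stop, following 30-180 min at 37° C with 2 mM MUGal stock at pH 4.6–4.8. Enzyme source is unchallenged culture supernatant of INVSc1 yeast expressing GLA variants, grown 66-84 h at 30° C.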

[2] = HTP-analysis of supernatants pretreated with acid (MUGal hydrolysis); conditions: challenge at pH 4.2; activity of the variant/activity of Rd2BB (SEQ ID NO: 10); yeast supernatant
Outline: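 Yeast INVSc1 supernatant, GLA variants; acid challenge: McIlvaine pH 3.3-4.3, 37° C., 1-3 h. Assay: MUGal in McIlvaine pH 4.8 plus citrate pH 4.3, 37° C., 30-180 min, Na2CO3 stop, Ex 355/Em 448 nm.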

[3] = HTP-analysis of supernatants pretreated with base (MUGal hydrolysis); conditions: challenge at pH 7.6; activity of the variant/activity of Rd2BB (SEQ ID NO: 10); yeast supernatant
Outline: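 GLA variants were secreted by transformed INVSc1 yeast grown 66-84 h at 30° C. Supernatants were exposed to neutral-to-basic buffers (pH 7.0-9.7) at 37° C for 1-18 h, then assayed with MUGal in acidic citrate/McIlvaine buffer, with fluorescence read after quenching.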

| Molecule | Relative Activity of GLA Variants After No Challenge (NC) [1] | Relative Activity of GLA Variants After Challenge at pH 4.2 [2] | Relative Activity of GLA Variants After Challenge at pH 7.6 [3] |
| --- | --- | --- | --- |
| B1 | + (+ = 0.5 to 1.5 relative activity over Rd2BB (SEQ ID NO: 10)) | − (− = <0.5 relative activity over Rd2BB (SEQ ID NO: 10)) | − (− = <0.5 relative activity over Rd2BB (SEQ ID NO: 10)) |
| B2 | +++ (+++ = >2.5 relative activity over Rd2BB (SEQ ID NO: 10)) | +++ (+++ = >2.5 relative activity over Rd2BB (SEQ ID NO: 10)) | +++ (+++ = >2.5 relative activity over Rd2BB (SEQ ID NO: 10)) |
| B3 | + (+ = 0.5 to 1.5 relative activity over Rd2BB (SEQ ID NO: 10)) | + (+ = 0.5 to 1.5 relative activity over Rd2BB (SEQ ID NO: 10)) | + (+ = 0.5 to 1.5 relative activity over Rd2BB (SEQ ID NO: 10)) |
| B4 | ++ (++ = 1.5 to 2.5 relative activity over Rd2BB (SEQ ID NO: 10)) | +++ (+++ = >2.5 relative activity over Rd2BB (SEQ ID NO: 10)) | +++ (+++ = >2.5 relative activity over Rd2BB (SEQ ID NO: 10)) |
| B5 | +++ (+++ = >2.5 relative activity over Rd2BB (SEQ ID NO: 10)) | +++ (+++ = >2.5 relative activity over Rd2BB (SEQ ID NO: 10)) | +++ (+++ = >2.5 relative activity over Rd2BB (SEQ ID NO: 10)) |
| B6 | + (+ = 0.5 to 1.5 relative activity over Rd2BB (SEQ ID NO: 10)) | + (+ = 0.5 to 1.5 relative activity over Rd2BB (SEQ ID NO: 10)) | + (+ = 0.5 to 1.5 relative activity over Rd2BB (SEQ ID NO: 10)) |
| B7 | + (+ = 0.5 to 1.5 relative activity over Rd2BB (SEQ ID NO: 10)) | + (+ = 0.5 to 1.5 relative activity over Rd2BB (SEQ ID NO: 10)) | ++ (++ = 1.5 to 2.5 relative activity over Rd2BB (SEQ ID NO: 10)) |
| B8 | + (+ = 0.5 to 1.5 relative activity over Rd2BB (SEQ ID NO: 10)) | + (+ = 0.5 to 1.5 relative activity over Rd2BB (SEQ ID NO: 10)) | + (+ = 0.5 to 1.5 relative activity over Rd2BB (SEQ ID NO: 10)) |

From patent US11278600B2, “Human alpha-galactosidase variants” (Codexis, Inc., priority 2014, dated 2022)
